Some targets named below: Asp109 (UniProt position 136, FTVQLDDYLNG); Asp110 (UniProt position 137, TVQLDDYLNGR); Asp50 (UniProt position 77, RVEKFDLVPVP); Asp61 (UniProt position 88, TNLYGDFFTGD); Asp66 (UniProt position 93, DFFTGDAYVIL); Asp84 (UniProt position 111, GNLQYDLHYWL); Asp96 (UniProt position 123, NECSQDESGAA); Glu121 (UniProt position 148, AVQHREVQGFE); Glu126 (UniProt position 153, EVQGFESATFL); Glu156 (UniProt position 183, HVVPNEVVVQR); Glu38 (UniProt position 65, LKAGKEPGLQI); Glu47 (UniProt position 74, QIWRVEKFDLV); Glu92 (UniProt position 119, YWLGNECSQDE); Glu97 (UniProt position 124, ECSQDESGAAA); His119 (UniProt position 146, GRAVQHREVQG); His151 (UniProt position 178, ASGFKHVVPNE); His29 (UniProt position 56, SMVVEHPEFLK); His86 (UniProt position 113, LQYDLHYWLGN).

Assay in all cases: NMR
Holding throughout (conditions): 25 °C; Not stated for the titration samples (structure samples contained 45 mM NaCl, 1 mM EDTA, 1 mM EGTA); Phosphate buffer for pH 7.3 to 5.9; acetate buffer for pH 5.5 to 3.5; pH changed by buffer exchange; concentrations not given; Ca2+-free, ligand-free, folded (the protein starts to unfold at pH 3 or below); ~0.5 mM protein

In general, pKa refers to the pH at which an ionisable group is half protonated. Read a high pKa as a weaker acid or stronger base. With “Gelsolin fragment G1+ (domain 1 plus G1-G2 linker) (Homo sapiens (inferred; not stated explicitly in the article))”, the pKa is 5.5 with Asp109; 4.3 with Asp110; 4.8 with Asp50; 4.5 with Asp61; 3.9 with Asp66; <3.5 with Asp84. Besides, the pKa with Asp96 is <3.5; in the series with Glu121, <3.5; with Glu126, <3.5; with Glu156, 3.8; with Glu38, 4.1; with Glu47, <3.5. The pKa in the series with Glu92 is listed as 4.3; in the series with Glu97, <3.5; with His119, 4.3; with His151, 6.2; with His29, 5.9; with His86, 4.2.

Source of the values: article PMC5368644.
